Reference: article PMC2120337

Target: bacterially expressed beta18 (Drosophila)
Assay: chymotrypsin protection

Sequence of bacterially expressed beta18 (Drosophila) (Q00963 whole entry): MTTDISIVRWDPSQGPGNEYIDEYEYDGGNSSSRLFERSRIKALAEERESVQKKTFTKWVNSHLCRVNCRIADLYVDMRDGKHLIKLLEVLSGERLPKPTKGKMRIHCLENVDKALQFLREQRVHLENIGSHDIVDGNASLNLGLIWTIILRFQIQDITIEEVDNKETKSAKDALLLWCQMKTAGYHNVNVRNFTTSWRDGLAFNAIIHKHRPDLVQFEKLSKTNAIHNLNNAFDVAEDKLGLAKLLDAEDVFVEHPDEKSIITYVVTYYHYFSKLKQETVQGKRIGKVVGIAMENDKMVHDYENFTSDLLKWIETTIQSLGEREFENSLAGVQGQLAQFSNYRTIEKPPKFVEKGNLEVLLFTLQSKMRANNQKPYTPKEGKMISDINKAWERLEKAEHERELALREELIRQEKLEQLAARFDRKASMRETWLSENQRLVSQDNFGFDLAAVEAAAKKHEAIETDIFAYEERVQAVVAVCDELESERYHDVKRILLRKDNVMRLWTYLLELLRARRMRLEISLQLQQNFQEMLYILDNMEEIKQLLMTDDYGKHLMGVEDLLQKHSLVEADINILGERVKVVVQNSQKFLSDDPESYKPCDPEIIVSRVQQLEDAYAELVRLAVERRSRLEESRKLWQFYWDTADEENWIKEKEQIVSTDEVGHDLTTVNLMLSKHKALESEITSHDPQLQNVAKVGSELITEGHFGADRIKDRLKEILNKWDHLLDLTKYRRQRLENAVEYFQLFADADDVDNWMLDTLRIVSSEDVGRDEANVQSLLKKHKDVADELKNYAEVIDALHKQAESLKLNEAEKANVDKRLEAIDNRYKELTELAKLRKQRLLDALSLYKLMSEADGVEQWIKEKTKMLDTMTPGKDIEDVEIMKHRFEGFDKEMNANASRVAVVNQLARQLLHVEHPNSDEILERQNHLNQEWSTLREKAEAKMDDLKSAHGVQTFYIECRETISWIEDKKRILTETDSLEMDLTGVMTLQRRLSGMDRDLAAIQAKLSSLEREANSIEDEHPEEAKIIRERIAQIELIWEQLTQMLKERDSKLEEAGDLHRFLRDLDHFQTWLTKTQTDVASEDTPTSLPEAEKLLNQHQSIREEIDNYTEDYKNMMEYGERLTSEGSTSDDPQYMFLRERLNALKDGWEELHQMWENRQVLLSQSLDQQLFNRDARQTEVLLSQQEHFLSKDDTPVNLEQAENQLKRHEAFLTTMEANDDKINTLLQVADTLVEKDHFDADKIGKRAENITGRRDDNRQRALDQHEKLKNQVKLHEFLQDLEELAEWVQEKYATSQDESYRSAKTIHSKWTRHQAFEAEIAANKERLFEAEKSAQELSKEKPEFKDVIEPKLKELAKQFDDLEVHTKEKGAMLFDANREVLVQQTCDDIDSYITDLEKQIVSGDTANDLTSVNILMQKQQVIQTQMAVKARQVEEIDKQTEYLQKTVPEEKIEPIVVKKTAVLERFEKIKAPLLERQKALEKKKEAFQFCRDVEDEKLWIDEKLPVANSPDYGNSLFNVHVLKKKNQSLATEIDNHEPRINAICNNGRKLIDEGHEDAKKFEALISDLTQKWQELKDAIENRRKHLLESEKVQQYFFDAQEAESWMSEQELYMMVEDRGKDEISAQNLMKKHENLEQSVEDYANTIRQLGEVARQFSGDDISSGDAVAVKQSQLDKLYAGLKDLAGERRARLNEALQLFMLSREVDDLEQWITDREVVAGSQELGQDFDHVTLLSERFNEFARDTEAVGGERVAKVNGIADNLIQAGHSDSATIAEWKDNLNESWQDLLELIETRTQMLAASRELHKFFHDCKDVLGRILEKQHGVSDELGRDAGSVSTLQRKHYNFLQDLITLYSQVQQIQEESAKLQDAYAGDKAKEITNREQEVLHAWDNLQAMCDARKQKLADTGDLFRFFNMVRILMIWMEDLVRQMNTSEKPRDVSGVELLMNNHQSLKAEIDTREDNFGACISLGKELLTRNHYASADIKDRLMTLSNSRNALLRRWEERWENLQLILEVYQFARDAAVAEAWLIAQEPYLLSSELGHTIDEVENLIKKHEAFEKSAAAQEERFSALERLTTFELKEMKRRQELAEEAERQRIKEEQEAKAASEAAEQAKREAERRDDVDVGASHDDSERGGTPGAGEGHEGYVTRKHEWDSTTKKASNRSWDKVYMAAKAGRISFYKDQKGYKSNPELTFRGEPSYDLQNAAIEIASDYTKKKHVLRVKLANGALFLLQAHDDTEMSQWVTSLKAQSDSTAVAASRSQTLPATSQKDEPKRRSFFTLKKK

B1: bacterially expressed alpha0-1(R22S) (domain or fragment)
chain: MENFTPKEVKILETVEDIQERSEQVLSRYNDFKIETRQKREKLEDSRRFQYFKRDADELESWIHEKLQAASEESYRDPTNLQAKIQKHQAFEAEVSAHSNAIVSLDNTGQEMINQQHFASESIQVRLDELHKLWELLLSRLAEKGLKLQQ
B1 was tested. Which percent intact (chymotrypsin protection, beta18 present) did it give?
The percent intact (chymotrypsin protection, beta18 present) was 61.2%.
